Patent US9359634B2, “Fast reaction kinetics of enzymes having low activity in dry chemistry layers” (Roche Diabetes Care, Inc., priority 2009, dated 2016)
Substitutions are numbered along the chain they refer to. Read-outs that look alike come from different tables or passages of the source.

B1: WT-GlucDH: wild type (native) glucose dehydrogenase from Bacillus subtilis (protein, listed as Bacillus subtilis)
chain: MYPDLKGKVVAITGAASGLGKAMAIRFGKEQAKVVINYYSNKQDPNEVKEEVIKAGGEAVVVQGDVTKEEDVKNIVQTAIKEFGTLDIMINNAGLENPVPSHEMPLKDWDKVIGTNLTGAFLGSREAIKYFVENDIKGNVINMSSVHEVIPWPLFVHYAASKGGIKLMTETLALEYAPKGIRVNNIGPGAINTPINAEKFADPKQKADVESMIPMGYIGEPEEIAAVAVWLASKESSYVTGITLFADGGMTKYPSFQAGRG
B2: GlucDH_E170K (protein, UniProt P12310 1-261, looked up, variant E170K)
Glucose 1-dehydrogenase: B1 chain with E170K, V229A, S236A, K252Q
B3: GlucDH_E170K_K252L (protein)
chain: B1 chain with E170K, K252L
modifications: Mutant of glucose dehydrogenase from Bacillus subtilis

Experiments:
Format in all cases: biochemical
[1] = tested on: glucose dehydrogenase from Bacillus subtilis; assay: Enzyme activity before and after temperature stress (stress test) of clones; conditions: stress test: 30 min at 50° C.; tested in Escherichia coli XL1blue MRF′
Description: The PCR product obtained was transformed into Escherichia coli XL1blue MRF′. The cells were plated out, clones containing plasmid were cultured overnight and the enzyme activity was determined before and after temperature stress (stress test: 30 min at 50° C.).

[2] = target: T1, glucose dehydrogenase from Bacillus subtilis (Bacillus subtilis, UniProt P12310, A229V/A236S/Q252K); conditions: enzyme used in the test strips; coenzyme NAD
[3] = tested on: glucose dehydrogenase from Bacillus subtilis; conditions: for activity, U/mg enzyme / activity, U/mg lyophilisate: cuvette, 25° C., 340 nm; for % U/mg lyophilisate relative to NAD: coenzyme carbaNAD relative to NAD; for activity with carbaNAD compared with activity with NAD: standardized conditions in a cuvette
[4] = target: T1, glucose dehydrogenase from Bacillus subtilis; conditions: test strips, coenzyme NAD, blood with adjusted glucose values; 1556.2 to 25.10 kU/100 g mass
[5] = target: T2, glucose dehydrogenase from Bacillus subtilis (Bacillus subtilis, UniProt P12310, A229V/A236S/E170K/Q252L); conditions: enzyme used in the test strips; coenzyme carbaNAD
T2 sequence (P12310 whole entry E170K/A229V/A236S/Q252L): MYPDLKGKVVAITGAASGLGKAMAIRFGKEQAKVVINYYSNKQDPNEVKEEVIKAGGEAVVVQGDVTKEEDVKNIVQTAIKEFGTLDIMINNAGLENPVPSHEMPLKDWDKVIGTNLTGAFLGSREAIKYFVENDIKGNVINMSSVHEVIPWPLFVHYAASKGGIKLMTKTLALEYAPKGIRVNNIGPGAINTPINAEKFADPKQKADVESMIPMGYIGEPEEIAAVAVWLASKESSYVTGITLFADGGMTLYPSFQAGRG

[6] = target: T2, glucose dehydrogenase from Bacillus subtilis; conditions: test strips, coenzyme carbaNAD, 4.60 kU/100 g mass; versus all wild type/NAD formulations of table 3

Molecule	residual activity after stress (%) [1]	lyophilisate activity (U/mg) [2]	Vmax (U/mg lyophilsate) [3]	Km ([3]; coenzyme NAD)	activity, U/mg enzyme ([3]; coenzyme NAD)	activity, U/mg lyophilisate ([3]; coenzyme NAD)	Km ([3]; coenzyme carbaNAD)	Vmax (U/mg lyophilisate) ([3]; coenzyme carbaNAD)	% U/mg lyophilisate relative to NAD [3]	activity, U/mg enzyme ([3]; coenzyme carbaNAD)	activity, U/mg lyophilisate ([3]; coenzyme carbaNAD)	activity with carbaNAD compared with activity with NAD [3]	kinetics of the conversion of glucose [4]	lyophilisate activity (U/mg) [5]	kinetics of the conversion of glucose [6]
B1	23%	251 U/mg	122	80 µM	484 U/mg enzyme	203 U/mg lyophilisate	300 µM	3 U/mg lyophilisate	1.7%	8.2 U/mg enzyme	3.4 U/mg lyophilisate	two orders of magnitude lower	worsened with a decreasing enzyme content		
B2	80%														
B3	130%		144	70 µM	270 U/mg enzyme	167 U/mg lyophilisate	1400 µM	13 U/mg lyophilisate	1.4%	3.7 U/mg enzyme	2.3 U/mg lyophilisate	about two orders of magnitude lower		2.3 U/mg	better kinetics
